Test results taken from patent US20220402983A1 (Janssen / Centocor, published 2022).
*1 amine or outer side, *2 acyl side, *3 side chain or, on linkers, in order; H or OH if unused. Bridges are numbered along the chain shown (N, C = ends). Primed or numbered codes have the meaning given here. Where no end group is shown, it is not given here. [ ]: non-standard residue; d: D form. The star is where a group is joined. bMe2Nal(2S,3R) = beta-methyl-2-naphthylalanine (2S,3R), C[C@H](c1ccc2ccccc2c1)[C@H](N[*:1])C(=O)[*:2]; 4AcDPhe = D-(4-acyl)phenylalanine, CC(=O)c1ccc(C[C@@H](N[*:1])C(=O)[*:2])cc1; Phe(4-OMe)″ = 4-methoxyphenylalanine, COc1ccc(C[C@H](N[*:1])C(=O)[*:2])cc1; Trp(7-Ph) = N[C@@H](Cc1c[nH]c2c(-c3ccccc3)cccc12)C(=O)O; Trp(7-Me) = Cc1cccc2c(C[C@H](N)C(=O)O)c[nH]c12; Phe(3R-Me) = C[C@H](c1ccccc1)[C@H](N)C(=O)O; dPhe(4-NH2) = Nc1ccc(C[C@@H](N)C(=O)O)cc1; Phe(4-NH2) = Nc1ccc(C[C@H](N)C(=O)O)cc1; Ac6c(4,4-F2) = NC1(C(=O)O)CCC(F)(F)CC1; 2Nal = N[C@@H](Cc1ccc2ccccc2c1)C(=O)O; AEF = NCCOc1ccc(C[C@H](N)C(=O)O)cc1; αMeF = C[C@](N)(Cc1ccccc1)C(=O)O; Pen = CC(C)(S)[C@H](N)C(=O)O; αMeK = C[C@](N)(CCCCN)C(=O)O; αMeC = C[C@](N)(CS)C(=O)O; Thp = NC1(C(=O)O)CCOCC1; Abu = CC[C@H](N)C(=O)O; Ac3c = NC1(C(=O)O)CC1; BH = not defined here; Boc = CC(C)(C)OC(=O)*; Propionyl = CCC(=O)*

T1: human IL-23R (interleukin-23 receptor) (human, UniProt Q5VWK5 24-629)
T1 sequence (looked up): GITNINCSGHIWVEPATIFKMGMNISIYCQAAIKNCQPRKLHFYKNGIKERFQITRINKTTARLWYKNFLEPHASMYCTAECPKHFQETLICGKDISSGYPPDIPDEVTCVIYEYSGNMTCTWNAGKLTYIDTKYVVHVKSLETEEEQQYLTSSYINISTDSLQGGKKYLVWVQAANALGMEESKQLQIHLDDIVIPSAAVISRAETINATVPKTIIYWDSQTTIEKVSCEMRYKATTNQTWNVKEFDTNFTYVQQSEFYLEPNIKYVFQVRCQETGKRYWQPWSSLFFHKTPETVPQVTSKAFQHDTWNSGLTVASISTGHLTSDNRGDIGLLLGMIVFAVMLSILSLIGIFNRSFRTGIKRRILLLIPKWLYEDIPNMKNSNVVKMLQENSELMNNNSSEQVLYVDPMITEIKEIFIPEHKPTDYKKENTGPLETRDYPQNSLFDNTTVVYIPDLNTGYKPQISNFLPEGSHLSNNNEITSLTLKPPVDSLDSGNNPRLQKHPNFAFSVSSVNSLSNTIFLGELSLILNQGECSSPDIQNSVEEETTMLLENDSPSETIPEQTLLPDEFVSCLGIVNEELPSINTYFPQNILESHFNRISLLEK

B1: Compound No. 312 (peptide)
peptide: XNTXKXXXKKNF
modifications: MeCO-Pen-N-T-7MeTrp-K(Ac)-Pen-AEF-2Nal-aMeK-K(Ac)-N-bMePhe(S,R)-CONH2; cyclized: Pen-Pen disulfide bond
B2: Compound No. 310 (peptide)
peptide: Ac-[dR]CNT[Trp(7-Me)]K(Ac)[αMeC][AEF][2Nal][Ac3c]EN[Thp]-NH2
modifications: disulfide 2-7
SMILES: CC(=O)NCCCC[C@@H]1NC(=O)[C@H](Cc2c[nH]c3c(C)cccc23)NC(=O)[C@H]([C@@H](C)O)NC(=O)[C@H](CC(N)=O)NC(=O)[C@@H](NC(=O)[C@@H](CCCNC(=N)N)NC(C)=O)CSSC[C@@](C)(C(=O)N[C@@H](Cc2ccc(OCCN)cc2)C(=O)N[C@@H](Cc2ccc3ccccc3c2)C(=O)NC2(C(=O)N[C@@H](CCC(=O)O)C(=O)N[C@@H](CC(N)=O)C(=O)NC3(C(N)=O)CCOCC3)CC2)NC1=O
B3: Compound No. 306 (peptide)
peptide: Ac-[dR][Pen]NT[Trp(7-Me)][Phe(4-NH2)](Ac)[Pen][AEF][2Nal][Ac3c]EN[Thp]-NH2
modifications: disulfide 2-7
SMILES: CC(=O)Nc1ccc(C[C@@H]2NC(=O)[C@H](Cc3c[nH]c4c(C)cccc34)NC(=O)[C@H]([C@@H](C)O)NC(=O)[C@H](CC(N)=O)NC(=O)[C@@H](NC(=O)[C@@H](CCCNC(=N)N)NC(C)=O)C(C)(C)SSC(C)(C)[C@@H](C(=O)N[C@@H](Cc3ccc(OCCN)cc3)C(=O)N[C@@H](Cc3ccc4ccccc4c3)C(=O)NC3(C(=O)N[C@@H](CCC(=O)O)C(=O)N[C@@H](CC(N)=O)C(=O)NC4(C(N)=O)CCOCC4)CC3)NC2=O)cc1
B4: Compound No. 315 (peptide)
peptide: Ac-[dR][Pen]NT[Trp(7-Me)]K(Ac)[Pen][AEF][2Nal][Ac3c]ENH[dPhe(4-NH2)]-NH2
modifications: disulfide 2-7
SMILES: CC(=O)NCCCC[C@@H]1NC(=O)[C@H](Cc2c[nH]c3c(C)cccc23)NC(=O)[C@H]([C@@H](C)O)NC(=O)[C@H](CC(N)=O)NC(=O)[C@@H](NC(=O)[C@@H](CCCNC(=N)N)NC(C)=O)C(C)(C)SSC(C)(C)[C@@H](C(=O)N[C@@H](Cc2ccc(OCCN)cc2)C(=O)N[C@@H](Cc2ccc3ccccc3c2)C(=O)NC2(C(=O)N[C@@H](CCC(=O)O)C(=O)N[C@@H](CC(N)=O)C(=O)N[C@@H](Cc3c[nH]cn3)C(=O)N[C@H](Cc3ccc(N)cc3)C(N)=O)CC2)NC1=O
B5: Compound No. 313 (peptide)
peptide: Ac-[dR][Pen]NT[Trp(7-Me)]K(Ac)[Pen][AEF][2Nal][Thp]EN[Phe(3R-Me)]-NH2
modifications: disulfide 2-7
SMILES: CC(=O)NCCCC[C@@H]1NC(=O)[C@H](Cc2c[nH]c3c(C)cccc23)NC(=O)[C@H]([C@@H](C)O)NC(=O)[C@H](CC(N)=O)NC(=O)[C@@H](NC(=O)[C@@H](CCCNC(=N)N)NC(C)=O)C(C)(C)SSC(C)(C)[C@@H](C(=O)N[C@@H](Cc2ccc(OCCN)cc2)C(=O)N[C@@H](Cc2ccc3ccccc3c2)C(=O)NC2(C(=O)N[C@@H](CCC(=O)O)C(=O)N[C@@H](CC(N)=O)C(=O)N[C@H](C(N)=O)[C@H](C)c3ccccc3)CCOCC2)NC1=O
B6: Compound No. 317 (peptide)
peptide: XNTXKXXXXENX
modifications: MeCO-Pen-N-T-7MeW-K(Ac)-Pen-AEF-2Nal-Acpx-E-N-THP---CONH2; cyclized: Pen-Pen disulfide bond
B7: Compound No. 305 (peptide)
peptide: H-[dR][Pen]NT[Trp(7-Me)]K(Ac)[Pen][AEF](Boc)[2Nal][Thp]EN[αMeF]-NH2
modifications: disulfide 2-7
SMILES: CC(=O)NCCCC[C@@H]1NC(=O)[C@H](Cc2c[nH]c3c(C)cccc23)NC(=O)[C@H]([C@@H](C)O)NC(=O)[C@H](CC(N)=O)NC(=O)[C@@H](NC(=O)[C@H](N)CCCNC(=N)N)C(C)(C)SSC(C)(C)[C@@H](C(=O)N[C@@H](Cc2ccc(OCCNC(=O)OC(C)(C)C)cc2)C(=O)N[C@@H](Cc2ccc3ccccc3c2)C(=O)NC2(C(=O)N[C@@H](CCC(=O)O)C(=O)N[C@@H](CC(N)=O)C(=O)N[C@@](C)(Cc3ccccc3)C(N)=O)CCOCC2)NC1=O
B8: Compound No. 309 (peptide)
peptide: Ac-[dR][Pen]NT[Trp(7-Me)]K(Ac)[Pen][AEF][2Nal][Ac3c]ENHX-NH2
modifications: disulfide 2-7; not fully specified (residue 14); printed as MeCO-F[(D)Arg]-Pen-N -T-7MeW-K(Ac)-Pen-AEF-2Nal-Acpx-E-N-H-paf-CONH2
B9: Compound No. 12 (peptide)
peptide: RXQTWQCFXXENN
modifications: not fully specified; Ac-[(D)Arg]-[Abu]-Q-T-W-Q-[Cys]-Phe[4-(2-aminoethoxy)]-[2-Nal]-[THP]-E-N-N-ac; cyclized: Abu-Cys thioether bond
B10: Compound No. 316 (peptide)
peptide: Ac-[dR][Pen]NT[Trp(7-Me)]K(Ac)[Pen][AEF][2Nal][Ac3c]ENH[4AcDPhe]-NH2
modifications: disulfide 2-7
SMILES: CC(=O)NCCCC[C@@H]1NC(=O)[C@H](Cc2c[nH]c3c(C)cccc23)NC(=O)[C@H]([C@@H](C)O)NC(=O)[C@H](CC(N)=O)NC(=O)[C@@H](NC(=O)[C@@H](CCCNC(=N)N)NC(C)=O)C(C)(C)SSC(C)(C)[C@@H](C(=O)N[C@@H](Cc2ccc(OCCN)cc2)C(=O)N[C@@H](Cc2ccc3ccccc3c2)C(=O)NC2(C(=O)N[C@@H](CCC(=O)O)C(=O)N[C@@H](CC(N)=O)C(=O)N[C@@H](Cc3c[nH]cn3)C(=O)N[C@H](Cc3ccc(C(C)=O)cc3)C(N)=O)CC2)NC1=O
B11: Compound No. 307 (peptide)
peptide: Propionyl-[dR][Pen]QTWQ[Pen][AEF][bMe2Nal(2S,3R)][Thp]EN[Thp]-NH2
modifications: disulfide 2-7
SMILES: CCC(=O)N[C@H](CCCNC(=N)N)C(=O)N[C@@H]1C(=O)N[C@@H](CCC(N)=O)C(=O)N[C@@H]([C@@H](C)O)C(=O)N[C@@H](Cc2c[nH]c3ccccc23)C(=O)N[C@@H](CCC(N)=O)C(=O)N[C@H](C(=O)N[C@@H](Cc2ccc(OCCN)cc2)C(=O)N[C@H](C(=O)NC2(C(=O)N[C@@H](CCC(=O)O)C(=O)N[C@@H](CC(N)=O)C(=O)NC3(C(N)=O)CCOCC3)CCOCC2)[C@H](C)c2ccc3ccccc3c2)C(C)(C)SSC1(C)C
B12: Compound No. 308 (peptide)
peptide: Ac-[dR][Pen]NT[Trp(7-Me)]K(Ac)[Pen][AEF](Ac)[2Nal][Ac3c]EN[Thp]-NH2
modifications: disulfide 2-7
SMILES: CC(=O)NCCCC[C@@H]1NC(=O)[C@H](Cc2c[nH]c3c(C)cccc23)NC(=O)[C@H]([C@@H](C)O)NC(=O)[C@H](CC(N)=O)NC(=O)[C@@H](NC(=O)[C@@H](CCCNC(=N)N)NC(C)=O)C(C)(C)SSC(C)(C)[C@@H](C(=O)N[C@@H](Cc2ccc(OCCNC(C)=O)cc2)C(=O)N[C@@H](Cc2ccc3ccccc3c2)C(=O)NC2(C(=O)N[C@@H](CCC(=O)O)C(=O)N[C@@H](CC(N)=O)C(=O)NC3(C(N)=O)CCOCC3)CC2)NC1=O
B13: Compound No. 303 (peptide)
peptide: Ac-[dR][Pen]NT[Trp(7-Me)]K(Ac)[Pen][AEF][2Nal][Ac6c(4,4-F2)]EN[Thp]-NH2
modifications: disulfide 2-7
SMILES: CC(=O)NCCCC[C@@H]1NC(=O)[C@H](Cc2c[nH]c3c(C)cccc23)NC(=O)[C@H]([C@@H](C)O)NC(=O)[C@H](CC(N)=O)NC(=O)[C@@H](NC(=O)[C@@H](CCCNC(=N)N)NC(C)=O)C(C)(C)SSC(C)(C)[C@@H](C(=O)N[C@@H](Cc2ccc(OCCN)cc2)C(=O)N[C@@H](Cc2ccc3ccccc3c2)C(=O)NC2(C(=O)N[C@@H](CCC(=O)O)C(=O)N[C@@H](CC(N)=O)C(=O)NC3(C(N)=O)CCOCC3)CCC(F)(F)CC2)NC1=O

target: T1, human IL-23R (interleukin-23 receptor); test: cell-based or functional assay

PBMC pSTAT3 IC50 (nM) | pStat3 HTRF (nM), IC50, DB cells IL23R pSTAT3 cell assay [nM] | Binder
90 | – | B1
9.9 | – | B2
3.1 | – | [dR]CQTWQ[Pen][AEF][2Nal][Thp]EN[Thp]-NH2 (disulfide 2-7; not fully specified (N-terminus)) [Compound No. 20]
75 | – | Ac-[dR][Pen]NT[Trp(7-Me)]K(Ac)[Pen][AEF](BH)[2Nal][Thp]EN[αMeF]-NH2 (disulfide 2-7; reading uncertain) [Compound No. 314]
9.6 | – | B3
2 | – | B4
21 | – | B5
13 | – | B6
17 | – | B7
290 | – | Ac-[Pen]NT[Trp(7-Me)]K(Ac)[Pen][4PipPhe][2Nal][αMeK]K(Ac)N[αMeF]-NH2 (disulfide 1-6) [Compound No. 311]
8 | – | B8
20 | – | B9
2.1 | – | B10
21 | – | [dR][Abu]QTWQC[Phe(4-OMe)″][2Nal][Thp]EN[Thp]-NH2 (thioether 2-7; not fully specified (N-terminus)) [Compound No. 21]
52 | – | B11
8 | – | B12
22 | – | [dR][Abu]QTWQC[Phe(4-OMe)″][2Nal][Thp]EN[Thp]-NH2 (thioether 2-7) [Compound No. 22]
1.3 | – | B13
3.4 | – | Ac-[dR][Abu]QTWQC[AEF][2Nal][Thp]ENF-NH2 (thioether 2-7) [Compound No. 17]
– | 13.9 | Ac-[dR][Abu]QT[Trp(7-Ph)]K(Ac)C[AEF][2Nal][αMeK]K(Ac)N[αMeF]-NH2 (thioether 2-7) [Compound No. 11]
